This is an account of results in US20260132182A1 (published 2026).

To fix the notation:
T1: human amylin-3 (a) receptor (human, UniProt P30988 25-474; O60896 24-148)
T1 sequence (looked up) 1: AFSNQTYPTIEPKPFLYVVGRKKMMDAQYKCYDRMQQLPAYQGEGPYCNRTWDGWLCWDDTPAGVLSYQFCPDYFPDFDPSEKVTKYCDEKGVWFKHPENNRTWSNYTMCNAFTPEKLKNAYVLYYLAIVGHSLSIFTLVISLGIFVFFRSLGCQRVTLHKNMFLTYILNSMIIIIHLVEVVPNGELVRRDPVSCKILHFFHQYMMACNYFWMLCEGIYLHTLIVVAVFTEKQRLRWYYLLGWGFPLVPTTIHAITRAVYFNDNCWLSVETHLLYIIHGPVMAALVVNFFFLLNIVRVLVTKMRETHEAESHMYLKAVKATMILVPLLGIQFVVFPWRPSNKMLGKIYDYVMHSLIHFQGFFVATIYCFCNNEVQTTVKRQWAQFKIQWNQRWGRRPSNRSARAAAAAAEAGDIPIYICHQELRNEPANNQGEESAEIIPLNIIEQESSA
T1 sequence (looked up) 2: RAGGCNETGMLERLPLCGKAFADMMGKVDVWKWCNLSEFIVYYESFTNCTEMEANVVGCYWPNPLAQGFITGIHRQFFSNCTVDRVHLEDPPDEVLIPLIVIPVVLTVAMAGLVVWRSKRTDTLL

B1: Compound 0087 (peptide)
peptide: HGEGTFTSDVSSYLEEQAARK([AEEA-AEEA-γGlu-C16 diacid])FIEWLVRGK([AEEA-AEEA-γGlu-C16 diacid])GEGGEASELSTAALGRLSAELHELATLPRTETGSGSP-NH2
B2: Compound 0086 (peptide)
peptide: H[Aib]EGTFTSDVSSYLEEQAARK([AEEA-AEEA-γGlu-C16 diacid])FIEWLVRGK([AEEA-AEEA-γGlu-C16 diacid])GEGGEASELSTAALGRLSAELHELATLPRTETGSGSP-NH2
B3: Compound 0074 (peptide)
peptide: H[Aib]EGTFTSDVSSYLEEQAARK([AEEA-AEEA-γGlu-C16 diacid])FIAWLVRGRGGK([AEEA-AEEA-γGlu-C16 diacid])EASELSTAALGRLSAELHELATLPRTETGSGSP-NH2
B4: Compound 0010 (peptide)
peptide: H[Aib]EGTFTSDVSSYLEGQAAREFIAWLVRGRGEGEGEK([AEEA-AEEA-γGlu-C18 diacid])EASELSTAALGRLSAELHELATLPRTETGSGSP-NH2
B5: Compound 0076 (peptide)
peptide: H[Aib]EGTFTSDVSSYLEEQAARK([AEEA-AEEA-γGlu-C16 diacid])FIAWLVRGK([AEEA-AEEA-γGlu-C16 diacid])GGGEASELSTAALGRLSAELHELATLPRTETGSGSP-NH2
B6: Compound 0097 (peptide)
peptide: HGEGTFTSDVSSYLEEQAARK([AEEA-AEEA-γGlu-Decanoyl(10-(4-HOOC-PhO))])FIEWLVRGK([AEEA-AEEA-γGlu-Decanoyl(10-(4-HOOC-PhO))])GEGGGGGEASELSTAALGRLSAELHELATLPRTETGSGSP-NH2
B7: Compound 0660 (peptide)
peptide: H[Aib]EGTFTSDVSSYLEEQAAREFIAWLVRGRK([AEEA-γGlu-C18 diacid])GGGGEASELSTAALGRLSAELHELATLPRTETGSGSP-NH2
B8: Compound 0089 (peptide)
peptide: H[Aib]EGTFTSDVSSYLEEQAARK([AEEA-AEEA-γGlu-C18 diacid])FIEWLVRGK([AEEA-AEEA-γGlu-C18 diacid])GEGGEASELSTAALGRLSAELHELATLPRTETGSGSP-NH2
B9: Compound 0075 (peptide)
peptide: H[Aib]EGTFTSDVSSYLEGQAAK([AEEA-AEEA-γGlu-C16 diacid])EFIAWLVRGK([AEEA-AEEA-γGlu-C16 diacid])GGGEASELSTAALGRLSAELHELATLPRTETGSGSP-NH2
B10: Compound 0659 (peptide)
peptide: H[Aib]EGTFTSDVSSYLEEQAAREFIAWLVRGRK([Ahx-Ahx-γGlu-C20 diacid])GGGGEASELSTAALGRLSAELHELATLPRTETGSGSP-NH2
B11: Compound 0077 (peptide)
peptide: H[Aib]EGTFTSDVSSYLEEQAARK([AEEA-AEEA-γGlu-C16 diacid])FIAWLVK([AEEA-AEEA-γGlu-C16 diacid])GRGGGEASELSTAALGRLSAELHELATLPRTETGSGSP-NH2
B12: Compound 0095 (peptide)
peptide: H[Aib]EGTFTSDVSSYLEGQAAK([AEEA-AEEA-γGlu-Trx-C20 diacid])EFIAWLVRGRGGGGGGGGGEASELSTAALGRLSAELHELATLPRTETGSGSP-NH2
B13: Compound 0099 (peptide)
peptide: HWEGTFTSDVSSYLEEQAARK([AEEA-AEEA-γGlu-Decanoyl(10-(4-HOOC-PhO))])FIEWLVRGK([AEEA-AEEA-γGlu-Decanoyl(10-(4-HOOC-PhO))])GEGEASELSTAALGRLSAELHELATLPRTETGSGSP-NH2
B14: Compound 0094 (peptide)
peptide: H[Aib]EGTFTSDVSSYLEGQAAK([AEEA-AEEA-γGlu-C20 diacid])EFIAWLVRGRGGGGGGGGGEASELSTAALGRLSAELHELATLPRTETGSGSP-NH2
B15: Compound 0019 (peptide)
peptide: H[Aib]EGTFTSDVSSYLEGQAAK([AEEA-AEEA-γGlu-C18 diacid])EFIAWLVRGRGGQEPGQEPEASELSTAALGRLSAELHELATLPRTETGSGSP-NH2
B16: Compound 0092 (peptide)
peptide: H[Aib]EGTFTSDVSSYLEGQAAK([AEEA-AEEA-γGlu-C18 diacid])EFIAWLVRGRGGGGGGGGGGGGGEASELSTAALGRLSAELHELATLPRTETGSGSP-NH2
B17: Compound 0663 (peptide)
peptide: H[Aib]EGTFTSDVSSYLEEQAAREFIAWLVRGRK([AEEA-AEEA-AEEA-AEEA-γGlu-C20 diacid])GGGGEASELSTAALGRLSAELHELATLPRTETGSGSP-NH2
B18: Compound 0084 (peptide)
peptide: H[Aib]EGTFTSDVSSYLEGQAAREFIAWLVRGRGQEPK([AEEA-AEEA-γGlu-C18 diacid])GQAPEASELSTAALGRLSAELHELATLPRTETGSGSP-NH2
B19: Compound 0093 (peptide)
peptide: H[Aib]EGTFTSDVSSYLEGQAAK([AEEA-AEEA-γGlu-C18 diacid])EFIAWLVRGRGGGGGGGGGGGGGGGGGEASELSTAALGRLSAELHELATLPRTETGSGSP-NH2
B20: Compound 0085 (peptide)
peptide: H[Aib]EGTFTSDVSSYLEGQAAREFIAWLVRGRGQEPGQAPK([AEEA-AEEA-γGlu-C18 diacid])EASELSTAALGRLSAELHELATLPRTETGSGSP-NH2
B21: Compound 0090 (peptide)
peptide: HGEGTFTSDVSSYLEEQAARK([AEEA-AEEA-γGlu-C18 diacid])FIEWLVRGK([AEEA-AEEA-γGlu-C18 diacid])GEGGEASELSTAALGRLSAELHELATLPRTETGSGSP-NH2
B22: Compound 0083 (peptide)
peptide: H[Aib]EGTFTSDVSSYLEGQAAREFIAWLVRGRK([AEEA-AEEA-γGlu-C18 diacid])GQEPGQAPEASELSTAALGRLSAELHELATLPRTETGSGSP-NH2
B23: Compound 0661 (peptide)
peptide: H[Aib]EGTFTSDVSSYLEEQAAREFIAWLVRGRK([AEEA-AEEA-AEEA-γGlu-C18 diacid])GGGGEASELSTAALGRLSAELHELATLPRTETGSGSP-NH2
B24: Compound 0098 (peptide)
peptide: HGEGTFTSDVSSYLEEQAARKFIEWLVRGKGEGGGGGGGGGEASELSTAALGRLSAELHELATLPRTETGSGSP
modifications: Lys21 and Lys30 each (10-(4-carboxyphenoxy)decanoyl-gGlu-Ado-Ado); C-terminal amide
B25: Compound 0662 (peptide)
peptide: H[Aib]EGTFTSDVSSYLEEQAAREFIAWLVRGRK([AEEA-AEEA-AEEA-AEEA-γGlu-C18 diacid])GGGGEASELSTAALGRLSAELHELATLPRTETGSGSP-NH2

Starred links: 1 amine or outer side, 2 acyl side, 3 side chain; linkers in the order of their positions; H or OH if unused. Non-standard residues stand in square brackets, D forms with d. Groups on a side chain read outwards from the residue. *: point of attachment. Decanoyl(10-(4-HOOC-PhO)) = O=C(O)c1ccc(OCCCCCCCCCC(=O)*)cc1; C20 diacid = O=C(O)CCCCCCCCCCCCCCCCCCC(=O)*; C18 diacid = O=C(O)CCCCCCCCCCCCCCCCC(=O)*; C16 diacid = O=C(O)CCCCCCCCCCCCCCC(=O)*; γGlu = O=C(O)[C@H](CCC(=O)[*:2])N[*:1]; Trx = NC[C@H]1CC[C@H](C(=O)O)CC1; AEEA = NCCOCCOCC(=O)O; Aib = CC(C)(N)C(=O)O; Ahx = NCCCCCC(=O)O

The first experiment deals with T1, human amylin-3 (a) receptor. Description: cell-based or functional assay.
As for B1, the “Human AmyR3 potency [EC50 (pM)]” value worked out at 97.9 pM.
Regarding B2, the “Human AmyR3 potency [EC50 (pM)]” value stood at 78.3 pM.
With B3, the “Human AmyR3 potency [EC50 (pM)]” value amounted to 60.9 pM.
As for B4, the “Human AmyR3 potency [EC50 (pM)]” value worked out at 37 pM.
For the molecule B5, the “Human AmyR3 potency [EC50 (pM)]” value was determined as 46.4 pM.
Turning to B6, the “Human AmyR3 potency [EC50 (pM)]” value worked out at 93.1 pM.
On the same count and under the same terms, with B7 the figure was 12.7 pM; with B8, 65.5 pM.
Still for that read-out and setting: to B9 belongs 43.9 pM.
As to B10, the “Human AmyR3 potency [EC50 (pM)]” value came to 11.5 pM.
Still for that read-out and setting: to B11 belongs 25.7 pM.
On the same count and under the same terms, with B12 the figure was 6.6 pM; with B13, 44.9 pM.
For B14, the “Human AmyR3 potency [EC50 (pM)]” value turned out to be 11.3 pM.
For the molecule B15, the “Human AmyR3 potency [EC50 (pM)]” value stood at 26.5 pM.
Regarding B16, the “Human AmyR3 potency [EC50 (pM)]” value is 10.9 pM.
On the same count and under the same terms, to B17 belongs 12.6 pM.
Turning to B18, the “Human AmyR3 potency [EC50 (pM)]” value is 14 pM.
In the case of B19, the “Human AmyR3 potency [EC50 (pM)]” value came to 8.6 pM.
With B20, the “Human AmyR3 potency [EC50 (pM)]” value worked out at 55.8 pM.
Consider B21, for which the “Human AmyR3 potency [EC50 (pM)]” value stood at 70.9 pM.
On to B22, for which the “Human AmyR3 potency [EC50 (pM)]” value was determined as 46.2 pM.
Still for that read-out and setting: to B23 belongs 14.4 pM; to B24, 15.6 pM.
In the case of B25, the “Human AmyR3 potency [EC50 (pM)]” value came out at 14.6 pM.

The target in a further experiment is human GLP-1 receptor (human, UniProt P43220 24-463). Put plainly: cell-based or functional assay.
B1: the “Human GLP-1R potency [EC50 (pM)]” value came out at 23.8 pM.
Turning to B2, the “Human GLP-1R potency [EC50 (pM)]” value stood at 3.9 pM.
Turning to B3, the “Human GLP-1R potency [EC50 (pM)]” value was 0.8 pM.
Take B4: the “Human GLP-1R potency [EC50 (pM)]” value was determined as 5.4 pM.
The same measure, in the same setting: to B5 belongs 1.7 pM.
On to B6, for which the “Human GLP-1R potency [EC50 (pM)]” value worked out at 10 pM.
For the molecule B7, the “Human GLP-1R potency [EC50 (pM)]” value came out at 3.9 pM.
Take B8: the “Human GLP-1R potency [EC50 (pM)]” value was determined as 5.7 pM.
Still for that read-out and setting: to B9 belongs 84.5 pM; to B10, 4.7 pM.
For B11, the “Human GLP-1R potency [EC50 (pM)]” value was found to be 2.1 pM.
In the case of B12, the “Human GLP-1R potency [EC50 (pM)]” value stood at 7.4 pM.
Consider B13, for which the “Human GLP-1R potency [EC50 (pM)]” value is 9.6 pM.
B14: the “Human GLP-1R potency [EC50 (pM)]” value was 7.5 pM.
With B15, the “Human GLP-1R potency [EC50 (pM)]” value was determined as 13.7 pM.
On to B16, for which the “Human GLP-1R potency [EC50 (pM)]” value amounted to 18.5 pM.
For B17, the “Human GLP-1R potency [EC50 (pM)]” value is 3.2 pM.
B18: the “Human GLP-1R potency [EC50 (pM)]” value was 2.5 pM.
As to B19, the “Human GLP-1R potency [EC50 (pM)]” value was 7.5 pM.
Same read-out and setting: with B20 the figure was 2.2 pM; with B21, 32.6 pM; with B22, 5.4 pM.
As to B23, the “Human GLP-1R potency [EC50 (pM)]” value is 2.8 pM.
Consider B24, for which the “Human GLP-1R potency [EC50 (pM)]” value is 7.9 pM.
For B25, the “Human GLP-1R potency [EC50 (pM)]” value is 3 pM.
